System: Escherichia coli TOP10
Assay: shrunken log2 fold change of peptide-encoding DNA abundance (4.5 h post-induction vs induction); higher = less antimicrobial activity (less host growth inhibition)
Details: time post-induction: 4.5 h; library: site-saturation at positions 5, 18, 19, 20
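Note: peptides expressed intracellularly from a pBAD plasmid library in pooled LB shake-flask culture, induced with 0.3% L-arabinose, DNA abundance read by NGS, three biological replicates, DESeq2 with apeglm shrinkage.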

Sequence | shrunken log2 fold change
RRIRQRPPRLPRPRPRPICMPRP | -0.0553
RRIRNRPPRLPRPRPRPLVRPRP | -0.372
RRIRPRPPRLPRPRPRPGCSPRP | 0.266
RRIRARPPRLPRPRPRPECLPRP | 0.909
RRIRWRPPRLPRPRPRPTDLPRP | 0.0776
RRIRARPPRLPRPRPRPMERPRP | 0.0157
RRIRRRPPRLPRPRPRPAAGPRP | 0.326
RRIRFRPPRLPRPRPRPNVDPRP | -0.0445
RRIRFRPPRLPRPRPRPFAKPRP | -0.026
RRIRPRPPRLPRPRPRPIDIPRP | -0.252
RRIRTRPPRLPRPRPRPKGVPRP | 0.253
RRIRSRPPRLPRPRPRPEKMPRP | 0.061
RRIRSRPPRLPRPRPRPVFIPRP | -0.598
RRIRDRPPRLPRPRPRPGMAPRP | 0.22
RRIRSRPPRLPRPRPRPAMMPRP | -0.0721
RRIRKRPPRLPRPRPRPDNAPRP | 0.05
RRIRQRPPRLPRPRPRPSEDPRP | -0.0593
RRIRQRPPRLPRPRPRPMNSPRP | -0.468
RRIRFRPPRLPRPRPRPWYHPRP | -0.14
RRIRHRPPRLPRPRPRPHDIPRP | 0.0564
RRIRPRPPRLPRPRPRPPWDPRP | 0.312
RRIRLRPPRLPRPRPRPSLPPRP | -0.0357
RRIRVRPPRLPRPRPRPKQFPRP | 0.109
RRIRSRPPRLPRPRPRPWNDPRP | -0.303
RRIRNRPPRLPRPRPRPFWEPRP | -0.372

Sequence | shrunken log2 fold change
RRIRWRPPRLPRPRPRPYTVPRP | -0.29
RRIRKRPPRLPRPRPRPSIDPRP | 0.175
RRIRQRPPRLPRPRPRPEYLPRP | -0.00804
RRIRWRPPRLPRPRPRPQYTPRP | -0.384
RRIRLRPPRLPRPRPRPEVQPRP | 0.0654
RRIRPRPPRLPRPRPRPHISPRP | -0.422
RRIRQRPPRLPRPRPRPVVFPRP | 1.25
RRIRSRPPRLPRPRPRPEMLPRP | 0.536
RRIRIRPPRLPRPRPRPSECPRP | -0.00498
RRIRYRPPRLPRPRPRPIHAPRP | -1.49
RRIRDRPPRLPRPRPRPQIMPRP | 0.0478
RRIRERPPRLPRPRPRPLWWPRP | 0.0601
RRIRNRPPRLPRPRPRPRMAPRP | 0.424
RRIRGRPPRLPRPRPRPNVTPRP | 0.35
RRIRARPPRLPRPRPRPCQIPRP | -0.486
RRIRFRPPRLPRPRPRPFEWPRP | -0.0458
RRIRARPPRLPRPRPRPRGFPRP | 0.604
RRIRSRPPRLPRPRPRPMIIPRP | -0.182
RRIRSRPPRLPRPRPRPEASPRP | 0.715
RRIRCRPPRLPRPRPRPQAHPRP | -0.132
RRIRSRPPRLPRPRPRPALIPRP | 0.0414
RRIRQRPPRLPRPRPRPYEKPRP | -0.0946
RRIRSRPPRLPRPRPRPEARPRP | 0.292
RRIRSRPPRLPRPRPRPQFCPRP | -0.16
RRIRCRPPRLPRPRPRPVQYPRP | -0.203

Sequence | shrunken log2 fold change
RRIRHRPPRLPRPRPRPSKHPRP | -0.177
RRIRSRPPRLPRPRPRPWVRPRP | 0.0976
RRIRVRPPRLPRPRPRPHDRPRP | 0.068
RRIRIRPPRLPRPRPRPTRGPRP | 0.0292
RRIRDRPPRLPRPRPRPEGAPRP | 1.78
RRIRGRPPRLPRPRPRPKQRPRP | 0.471
RRIRNRPPRLPRPRPRPHNTPRP | -0.643
RRIRWRPPRLPRPRPRPRKKPRP | 0.408
RRIRERPPRLPRPRPRPEYIPRP | -0.177
RRIRERPPRLPRPRPRPAPKPRP | 0.678
RRIRPRPPRLPRPRPRPVKAPRP | 0.216
RRIRVRPPRLPRPRPRPFCSPRP | 0.0261
RRIRARPPRLPRPRPRPKFTPRP | 0.00836
RRIRYRPPRLPRPRPRPSSAPRP | -0.197
RRIRDRPPRLPRPRPRPWFGPRP | 0.228
RRIRPRPPRLPRPRPRPLSYPRP | 0.0626
RRIRDRPPRLPRPRPRPVLVPRP | 0.0945
RRIRFRPPRLPRPRPRPHTHPRP | -0.618
RRIRFRPPRLPRPRPRPERRPRP | 0.166
RRIRTRPPRLPRPRPRPQPGPRP | 0.165
RRIRDRPPRLPRPRPRPFPYPRP | -0.136
RRIRRRPPRLPRPRPRPHTMPRP | -0.0621
RRIRKRPPRLPRPRPRPILAPRP | 0.0492
RRIRIRPPRLPRPRPRPQTEPRP | -0.168
RRIRRRPPRLPRPRPRPNRIPRP | 0.0217
